Patent publication US20130171061A1

How the values were obtained:
[1] = target: Human transferrin receptor on K562 cells (human) (UniProt P02786); experiment: FACS of K562 cells with BSA-coupled fluorescent beads (negative control), 4 C, 1 h
[2] = target: Human transferrin receptor on K562 cells (human) (UniProt P02786); experiment: FACS of K562 cells with BSA-coupled fluorescent beads (negative control), 37 C, 1 h
[3] = target: Human transferrin receptor on K562 cells (human) (UniProt P02786); experiment: FACS of K562 cells with BSA-coupled fluorescent beads (negative control), 37 C with sodium azide, 1 h

Chain of Human transferrin receptor on K562 cells (human) (P02786 whole entry): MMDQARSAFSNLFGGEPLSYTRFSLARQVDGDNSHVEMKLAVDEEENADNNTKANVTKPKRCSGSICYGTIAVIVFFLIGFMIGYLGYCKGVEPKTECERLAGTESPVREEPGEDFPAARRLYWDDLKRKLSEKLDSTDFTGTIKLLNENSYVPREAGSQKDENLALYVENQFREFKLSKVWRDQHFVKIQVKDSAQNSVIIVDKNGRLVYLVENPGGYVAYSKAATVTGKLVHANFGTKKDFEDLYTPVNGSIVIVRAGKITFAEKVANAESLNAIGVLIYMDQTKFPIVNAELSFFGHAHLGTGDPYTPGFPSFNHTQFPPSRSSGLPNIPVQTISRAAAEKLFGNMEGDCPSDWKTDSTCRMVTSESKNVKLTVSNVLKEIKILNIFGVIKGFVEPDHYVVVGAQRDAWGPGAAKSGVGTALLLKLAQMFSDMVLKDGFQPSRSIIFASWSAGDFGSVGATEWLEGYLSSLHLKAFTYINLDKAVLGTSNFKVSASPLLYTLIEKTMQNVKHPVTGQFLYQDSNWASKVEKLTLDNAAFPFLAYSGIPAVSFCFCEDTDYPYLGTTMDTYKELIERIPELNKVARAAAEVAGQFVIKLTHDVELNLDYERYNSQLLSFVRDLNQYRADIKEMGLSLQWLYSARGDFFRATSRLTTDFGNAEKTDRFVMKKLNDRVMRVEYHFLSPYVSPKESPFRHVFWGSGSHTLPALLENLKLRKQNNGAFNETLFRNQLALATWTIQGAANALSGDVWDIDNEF

- Mean fluorescence intensity (MFI) [1]: 1.45 MFI
- Mean fluorescence intensity (MFI) [2]: 9.07 MFI
- Mean fluorescence intensity (MFI) [3]: 3.49 MFI
Substance: BSA (negative control on fluorescent beads) (from UniProt P02769 25-607)
